Experimental data: publication PMC12627605 (Nature Communications, 2025)

How the values were obtained:
GST-PP2C30 = target: T1, GST-PP2C30 (rice, UniProt Q84JI0 1-404); assay: pull-down
T1 sequence: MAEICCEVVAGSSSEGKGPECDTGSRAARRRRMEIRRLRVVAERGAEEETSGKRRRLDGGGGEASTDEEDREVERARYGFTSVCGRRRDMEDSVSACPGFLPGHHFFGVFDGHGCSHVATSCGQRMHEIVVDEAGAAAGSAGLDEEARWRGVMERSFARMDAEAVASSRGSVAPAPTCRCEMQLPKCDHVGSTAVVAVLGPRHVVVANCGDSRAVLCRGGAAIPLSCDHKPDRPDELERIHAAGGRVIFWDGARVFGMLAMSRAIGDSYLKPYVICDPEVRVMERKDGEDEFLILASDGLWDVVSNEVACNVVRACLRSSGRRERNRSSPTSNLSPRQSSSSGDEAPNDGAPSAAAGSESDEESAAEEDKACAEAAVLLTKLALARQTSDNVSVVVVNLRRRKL

GST-PP2C51 = target: T2, GST-PP2C51 (rice, UniProt Q65XK7 1-381); assay: pull-down
T2 sequence: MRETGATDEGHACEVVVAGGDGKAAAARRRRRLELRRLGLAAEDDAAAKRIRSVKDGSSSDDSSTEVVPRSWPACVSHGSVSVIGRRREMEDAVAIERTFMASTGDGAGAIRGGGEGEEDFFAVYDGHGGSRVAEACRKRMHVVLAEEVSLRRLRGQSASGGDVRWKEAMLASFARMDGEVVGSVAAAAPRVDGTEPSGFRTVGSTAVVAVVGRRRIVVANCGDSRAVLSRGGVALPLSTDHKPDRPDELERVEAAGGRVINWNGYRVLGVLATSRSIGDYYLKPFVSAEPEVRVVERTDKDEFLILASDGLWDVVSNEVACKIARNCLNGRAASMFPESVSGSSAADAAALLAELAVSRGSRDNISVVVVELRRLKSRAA

B1: SAPK2-His (natural protein)
chain: MERYEVIKDIGSGNFGVAKLVRDVRTKELFAVKFIERGQKIDENVQREIMNHRSLRHPNIVRFKEVVLTPTHLAIVMEYAAGGELFERICSAGRFSEDEARFFFQQLISGVSYCHSMQICHRDLKLENTLLDGSIAPRLKICDFGYSKSSLLHSQPKSTVGTPAYIAPEVLARKEYDGKVADVWSCGVTLYVMLVGAYPFEDPDEPRNFRKTITRILSVQYMVPDYVRVSMECRHLLSRIFVANPEQRITIPEIKNHPWFLKNLPIEMTDEYQMSVQMNDINTPSQGLEEIMAIIQEARKPGDGSKFSGQIPGLGSMELDDVDTDDIDVEDSGDFVCAL
Q: Does B1 bind (GST-PP2C30)?
A: binds

Q: Does B1 bind (GST-PP2C51)?
A: binds
